For test [1], the target named is recombinant full-length VAR2CSA (3D7-DBL1X-6ε) (Plasmodium falciparum (3D7)). As to the kind of experiment: SPR. On the technique in general: SPR reads the build-up and loss of mass on a sensor chip optically.
The target of test [2] is T1, recombinant full-length DARC325 protein (UniProt Q16570 1-325).
T1 chain: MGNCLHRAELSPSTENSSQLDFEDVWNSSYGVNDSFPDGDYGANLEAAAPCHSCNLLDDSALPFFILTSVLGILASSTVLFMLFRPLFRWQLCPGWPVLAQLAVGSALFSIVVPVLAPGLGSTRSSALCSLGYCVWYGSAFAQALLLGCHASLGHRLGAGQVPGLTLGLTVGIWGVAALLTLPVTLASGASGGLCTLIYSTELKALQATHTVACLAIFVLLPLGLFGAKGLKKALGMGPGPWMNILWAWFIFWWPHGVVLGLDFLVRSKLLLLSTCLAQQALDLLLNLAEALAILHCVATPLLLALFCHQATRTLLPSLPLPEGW
The test is described as follows: SPR.

Our source for the Kd values is patent US20180360950A1 (published 2018).

B1: VAR2CSAVHH (VHH)
VHH: QVQLQESGGGLVQAGGSLRLSCAFSGSIFKMGWFRQAPGKEREFVAAIRWSGGSTYYADSVKGRFTISRDNAKNTVYLQMDSLKPEDTAVYYCAATWDLAGWNTVDEYDYWGQGTQVTVSS
Broadly, the Kd is the constant that tells how readily two partners part at equilibrium. B1: the Kd in test [1] stood at 0.486 nM.

B2: DARCVHH (VHH)
VHH: QVQLQESGGGSVQAGGSLRLSCAASGYAFSSYCMAWFRQVPGKEREGVASINSDGERRGYADSVKGRFTVSRDNAKNTVYLQMNSLKPEDTAIYYCAAKRVVGGRYCGGGVSSWGQGTQVTVSS
With B2, the Kd in test [2] is 0.09 nM.

B3: DARCVHH-EBV P18F4 (VHH)
VHH: B2 VHH
B3: the Kd in test [2] was 0.0565 nM.
